Assays:
RHA dsRBD2 [1] = biological target: T1, RHA dsRBD2 (Homo sapiens, UniProt Q08211 165-264); test: ITC
RHA dsRBD2 K182A = RHA dsRBD2 K182A (Homo sapiens, UniProt Q08211 165-264, K182A); test: ITC
RHA dsRBD2 H207A = RHA dsRBD2 H207A (Homo sapiens, UniProt Q08211 165-264, H207A); test: ITC
RHA dsRBD1 [2] = biological target: T2, RHA dsRBD1 (Homo sapiens, UniProt Q08211 1-91); test: ITC
RHA dsRBD1 N30A = RHA dsRBD1 N30A (Homo sapiens, UniProt Q08211 1-91, N30A); test: ITC
RHA dsRBD1+2 = RHA dsRBD1+2 (Homo sapiens, UniProt Q08211 1-264); test: ITC
Sequence of RHA dsRBD1+2 (Q08211 1-264): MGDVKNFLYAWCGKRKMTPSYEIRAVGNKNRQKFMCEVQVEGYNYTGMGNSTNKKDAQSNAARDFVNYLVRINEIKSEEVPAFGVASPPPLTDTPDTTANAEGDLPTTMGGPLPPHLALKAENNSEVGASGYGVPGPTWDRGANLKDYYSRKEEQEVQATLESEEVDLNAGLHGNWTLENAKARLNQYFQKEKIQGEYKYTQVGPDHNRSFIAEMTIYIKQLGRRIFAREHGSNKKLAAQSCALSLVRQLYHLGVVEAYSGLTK

[3] = biological target: RHA dsRBD1 N53A/K54A/K55A (Homo sapiens, UniProt Q08211 1-91, N53A;K54A;K55A); test: ITC
Sequence of RHA dsRBD1 N53A/K54A/K55A (Q08211 1-91 N53A/K54A/K55A): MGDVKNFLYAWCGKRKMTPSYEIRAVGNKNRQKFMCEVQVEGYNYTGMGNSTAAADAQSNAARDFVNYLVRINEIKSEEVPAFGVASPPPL

[4] = biological target: RHA dsRBD2 N234A/K235A/K236A (Homo sapiens, UniProt Q08211 165-264, N234A;K235A;K236A); test: ITC
Sequence of RHA dsRBD2 N234A/K235A/K236A (Q08211 165-264 N234A/K235A/K236A): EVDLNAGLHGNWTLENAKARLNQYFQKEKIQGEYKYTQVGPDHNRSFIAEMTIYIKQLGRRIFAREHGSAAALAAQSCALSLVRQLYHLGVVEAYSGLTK

RHA dsRBD1 Y9A = RHA dsRBD1 Y9A (Homo sapiens, UniProt Q08211 1-91, Y9A); test: ITC
Sequence of RHA dsRBD1 Y9A (Q08211 1-91 Y9A): as the sequence (Q08211 1-91 N53A/K54A/K55A) above, with Y9A, A53N, A54K, A55K counted along it

RHA dsRBD2 [5] = biological target: T1, RHA dsRBD2; test: crystal structure
RHA dsRBD1 [6] = biological target: T2, RHA dsRBD1; test: crystal structure
GST-RHA dsRBD1+2 = GST-RHA dsRBD1+2 (Homo sapiens, UniProt Q08211 1-264); test: pull-down
Sequence of GST-RHA dsRBD1+2 (Q08211 1-264): as the sequence (Q08211 1-264) above

GST-RHA dsRBD2 = GST-RHA dsRBD2 (Homo sapiens, UniProt Q08211 165-264); test: pull-down
Sequence of GST-RHA dsRBD2 (Q08211 165-264): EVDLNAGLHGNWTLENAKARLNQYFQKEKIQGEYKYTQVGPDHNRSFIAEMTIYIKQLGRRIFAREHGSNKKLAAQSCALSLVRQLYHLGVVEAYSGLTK

GST-RHA dsRBD1 = GST-RHA dsRBD1 (Homo sapiens, UniProt Q08211 1-91); test: pull-down
Sequence of GST-RHA dsRBD1 (Q08211 1-91): as the sequence (Q08211 1-91 N53A/K54A/K55A) above, with A53N, A54K, A55K counted along it

T1 sequence (Q08211 165-264): as the sequence (Q08211 165-264) above
T2 sequence (Q08211 1-91): as the sequence (Q08211 1-91 N53A/K54A/K55A) above, with A53N, A54K, A55K counted along it
Sequence of RHA dsRBD2 H207A (Q08211 165-264 H207A): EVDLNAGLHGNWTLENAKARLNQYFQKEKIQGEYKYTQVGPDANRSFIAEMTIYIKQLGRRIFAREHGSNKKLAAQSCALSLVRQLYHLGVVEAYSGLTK
Sequence of RHA dsRBD1 N30A (Q08211 1-91 N30A): as the sequence (Q08211 1-91 N53A/K54A/K55A) above, with N30A, A53N, A54K, A55K counted along it
Sequence of RHA dsRBD2 K182A (Q08211 165-264 K182A): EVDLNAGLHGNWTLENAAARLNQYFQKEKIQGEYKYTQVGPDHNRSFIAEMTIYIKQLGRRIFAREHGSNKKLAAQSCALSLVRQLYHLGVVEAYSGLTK

B1: siRNA21 duplex (dsRNA)
RNA 1: AGACAGCAUUAUGCUGUCUUU
RNA 2: AGACAGCAUUAUGCUGUCUUU
modifications: 5' phosphate
B1 was tested, and the Kd (RHA dsRBD2 [1]) was 13.6 µM, the Kd (RHA dsRBD2 K182A) was 334 µM and the Kd (RHA dsRBD2 H207A) was 291 µM. For the same binder, the Kd (RHA dsRBD1 [2]) was 5.93 µM, the Kd (RHA dsRBD1 N30A) was 14.5 µM and the Kd (RHA dsRBD1+2) was 106 nM. B1: no binding [3]; no binding [4]; no binding (RHA dsRBD1 Y9A).

B2: GC10 duplex (dsRNA)
RNA 1: GCGCGCGCGC
RNA 2: GCGCGCGCGC
B2: binds (RHA dsRBD2 [5]); binds (RHA dsRBD1 [6]).

B3: 5'-biotinylated siRNA21 duplex (dsRNA)
RNA 1: AGACAGCAUUAUGCUGUCUUU
RNA 2: AGACAGCAUUAUGCUGUCUUU
B3: binds (GST-RHA dsRBD1+2); binds (GST-RHA dsRBD2); binds (GST-RHA dsRBD1).
